Laboratory results: US9101618B2, “Method for treating and/or preventing neurodegenerative disease by adiponectin receptor agonist” (TOKYO METROPOLITAN INSTITUTE OF MEDICAL SCIENCE, priority 2011, dated 2015)

Assays:
[1] = target: T1, human α (alpha)-synuclein recombinant protein (Homo sapiens, UniProt P37840); experiment: Protein-protein interaction of α-synuclein and adiponectin in test tube (western blotting); assay type: binding; details: 48 hours, 37° C.
T1 construct: made in house
Experimental: Human adiponectin recombinant protein (ProSpec, IWAI CHEMICALS COMPANY LTD.) 0.5 μg and human α (alpha)-synuclein recombinant protein (Hashimoto et al., Brain Res. 799:301 (1998)) 1.0 μg were incubated for 48 hours in 100 mM sodium acetate solution at 37° C., 500 rpm (Thermomixer, Eppendorf Co., Ltd.). Later, an analysis via western blotting was performed in accordance with procedures similar to those in example 1 through example 6. Each sample was dissolved in 1× sample buffer without 2ME, and heated at 95° C. for 10 min. With regard to a control experiment, incubation was performed at room temperature. Particularly, instead of α (alpha)-synuclein, BSA (1.0 μg) was incubated with adiponectin.

[2] = tested on: B103 neuroblastoma cells (α (alpha)S); experiment: Adiponectin addition (1): α-synuclein aggregation (western blotting of fractions); assay type: cell-based, rat; details: 1 μg/mL, 24 hours, serum-free medium
Experimental: The B103 neuroblastoma cells (α (alpha)S) and the B103 neuroblastoma cells (vector) were prepared and cultured in accordance with the procedures described in example 3. The B103 neuroblastoma cells (α (alpha)S) and the B103 neuroblastoma cells (vector) were inoculated on the 6-well plate and cultured to a state of about 80-90% confluence. After washing with PBS, the aforementioned cells were further cultured for 24 hours in a test medium prepared by adding recombinant human adiponectin (1 μg/mL, trimer, PROSPEC) to a serum-free medium. As a control, there was used a control medium prepared by adding thereto PBS instead of recombinant human adiponectin. After culturing, there were prepared the TBS soluble fraction, the SDS soluble fraction and the formic acid soluble fraction in accordance with the procedures described in example 1. Further, western blotting was performed in accordance with the procedures described in example 1. In order to evaluate α (alpha)-synuclein aggregation, an anti-α (alpha)-synuclein mouse monoclonal antibody (syn-1, Nippon Becton Dickinson Company, Ltd) was used as a primary antibody when performing western blotting, the anti-α (alpha)-synuclein mouse monoclonal antibody being diluted appropriately before use. […]

tau = experiment: Adiponectin addition (3): tau phosphorylation (western blotting); assay type: cell-based, rat; details: 1 μg/mL, 0, 1 and 2 hour(s), B103 neuroblastoma cells (αS)
Experimental: The B103 neuroblastoma cells (α (alpha)S) and the B103 neuroblastoma cells (vector) were inoculated on a 5 cm dish and cultured to a state of about 80-90% confluence. Later, the aforementioned cells were washed with PBS, and then cultured in a serum-free medium for four hours. After washing with PBS, the cells were then cultured in a test medium (adiponectin-added group) prepared by adding recombinant human adiponectin (1_μg/mL, trimer, PROSPEC) to a serum-free medium. As a control, there was used a control medium (adiponectin non-added group) prepared by adding thereto PBS instead of recombinant human adiponectin. A culture time was 0, 10 and 30 min when evaluating signal transduction, 0, 1 and 2 hour(s) when evaluating tau phosphorylation. The cells collected were lysed with a cell lysis solution (1% TritonX-100, 1% Nonidet P-40, 50 mM HEPES, 150 mM NaCl, 10% glycerol, 1.5 mM MgCl2, 1 mM EGTA, 100_mM sodium fluoride, a protease inhibitor (NACALAI TESQUE, INC.)). Supernatants were collected after performing centrifugation at 100,000×g for 30 min, and were used as surfactant soluble fractions when performing western blotting. Here, western blotting was performed in accordance with the procedures described in example 1. […]

B103 neuroblastoma cells = experiment: Cytotoxicity due to the addition of adiponectin; assay type: cell-based, rat; details: 1 μg/mL
Experimental: The B103 neuroblastoma cells (α (alpha)S) and the B103 neuroblastoma cells (vector) were prepared and cultured in accordance with the procedures described in example 3. The B103 neuroblastoma cells (α (alpha)S) and the B103 neuroblastoma cells (vector) were inoculated on the 6-well plate and cultured to a state of about 80-90% confluence. After washing with PBS, the aforementioned cells were further cultured for 24 hours in a test medium prepared by adding recombinant human adiponectin (1 μg/mL, trimer, PROSPEC) to a serum-free medium. As a control, there was used a control medium prepared by adding thereto PBS instead of recombinant human adiponectin. After culturing, there were prepared the TBS soluble fraction, the SDS soluble fraction and the formic acid soluble fraction in accordance with the procedures described in example 1. Further, western blotting was performed in accordance with the procedures described in example 1. In order to evaluate α (alpha)-synuclein aggregation, an anti-α (alpha)-synuclein mouse monoclonal antibody (syn-1, Nippon Becton Dickinson Company, Ltd) was used as a primary antibody when performing western blotting, the anti-α (alpha)-synuclein mouse monoclonal antibody being diluted appropriately before use. Additionally, an HRP labeled anti-mouse IgG antibody (DAKO) was used as a secondary antibody, the HRP labeled anti-mouse IgG antibody being diluted appropriately before use.
The B103 neuroblastoma cells (α (alpha)S) and the B103 neuroblastoma cells (vector) were inoculated on a 5 cm dish and cultured to a state of about 80-90% confluence. Later, the aforementioned cells were washed with PBS, and then cultured in a serum-free medium for four hours. After washing with PBS, the cells were then cultured in a test medium (adiponectin-added group) prepared by adding recombinant human adiponectin (1_μg/mL, trimer, PROSPEC) to a serum-free medium. As a control, there was used a control medium (adiponectin non-added group) prepared by adding thereto PBS instead of recombinant human adiponectin. […]

- dimer of adiponectin ([1]; 0.5 μg adiponectin incubated with 1.0 μg α-synuclein): further increased
- adiponectin aggregation ([1]; in the presence of α-synuclein, densitometer values of aggregate range): significantly promoted
B1: adiponectin: recombinant human adiponectin (trimer, PROSPEC) added to serum-free medium at 1 μg/mL (protein, UniProt Q15848 19-244, looked up)
Adiponectin: ETTTQGPGVLLPLPKGACTGWMAGIPGHPGHNGAPGRDGRDGTPGEKGEKGDPGLIGPKGDIGETGVPGAEGPRGFPGIQGRKGEPGEGAYVYRSAFSVGLETYVTIPNMPIRFTKIFYNQQNHYDGSTGKFHCNIPGLYYFAYHITVYMKDVKVSLFKKDKAMLFTYDQYQENNVDQASGSVLLHLEVGDQVWLQVYGEGERNGLYADNDNDSTFTGFLLYHDTN
- α-synuclein in culture supernatant [2]: decreased
- α-synuclein in the formic acid soluble fraction [2]: decreased
- amount of phosphorylated tau (Ser 202, Ser 396) (tau): decreased
- cytotoxicity (B103 neuroblastoma cells; 24 hours (α-synuclein aggregation experiment)): not particularly observed
- cytotoxicity (B103 neuroblastoma cells; signal transduction experiment): not particularly observed
- cytotoxicity (B103 neuroblastoma cells; tau phosphorylation experiment): not particularly observed
